Experimental data taken from PMC9576728.

Key:
POU2F3 = POU2F3 (UniProt Q9UKI9); experiment: co-immunoprecipitation (IP:HA) and western blot, quantified; settings: HEK293T cells, IP:HA lanes, parent: 1
FLAG-POU2F3 = FLAG-POU2F3 (UniProt Q9UKI9); experiment: co-immunoprecipitation (IP:FLAG) and western blot, quantified; settings: HEK293T cells, IP:FLAG lanes, parent: 1

ratio to parent (POU2F3; normalised POU2F3/COLCA2 ratio): 0.37
ratio to parent (POU2F3; raw POU2F3 band (untagged control lane 0.29; HA bait band WT 1, DAAPP 1.44)): 0.53
ratio to parent (FLAG-POU2F3; normalised COLCA2/POU2F3 ratio): 0.52
ratio to parent (FLAG-POU2F3; raw HA band (V5-POU2F3 control lane 0; FLAG bait band WT 1, DAAPP 1.07, V5 control 0.09)): 0.56
Substance: HA-COLCA2 (WT) (from UniProt A8K830) VKELL>DAAPP (V>D; K>A; E>A; L>P; L>P; residue numbers not printed)
